Experimental data taken from patent publication US20090041783A1 (MOCHIDA PHARMACEUTICAL, published 2009).
Changes are numbered by the printed parent chain. Each block holds one binder with its values, some of them ahead of it.

How the values were obtained:
[1] = target: T1, human GPVI extracellular region-human Fc fusion protein (hGPVI-hFc) (human); assay: competition ELISA on hGPVI-hFc plate; competitor: peroxidase-labelled F1232-37-2; +++ more than 50%, ++ 30-50%, + 10-30% inhibition
T1 construct: Expressed in COS-1, purified on Protein A; also called GPVI-HHH-hFc; hGPVIHHH-hFc
T1 sequence (chain, as listed by the source limits assumed): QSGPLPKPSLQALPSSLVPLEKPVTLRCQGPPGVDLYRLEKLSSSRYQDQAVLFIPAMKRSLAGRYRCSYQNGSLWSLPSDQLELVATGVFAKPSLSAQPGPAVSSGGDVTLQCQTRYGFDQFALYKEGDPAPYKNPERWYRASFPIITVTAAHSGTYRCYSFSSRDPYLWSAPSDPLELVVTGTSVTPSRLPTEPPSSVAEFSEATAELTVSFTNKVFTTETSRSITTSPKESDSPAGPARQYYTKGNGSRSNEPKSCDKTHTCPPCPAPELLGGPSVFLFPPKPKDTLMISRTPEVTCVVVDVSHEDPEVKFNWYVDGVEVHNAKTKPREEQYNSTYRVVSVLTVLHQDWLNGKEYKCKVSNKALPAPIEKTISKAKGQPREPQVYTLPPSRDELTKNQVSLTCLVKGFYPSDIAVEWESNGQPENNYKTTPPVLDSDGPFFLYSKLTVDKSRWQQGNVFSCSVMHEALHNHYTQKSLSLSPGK
Method: (§1) To analyze a property for each antibody obtained in EXAMPLE 13, binding to human GPVI-hFc, competition with F1232-37-2 described in EXAMPLE 4 and specificity for L9 loop were investigated. That is, as for the binding to human GPVI, according to the method of EXAMPLE 2, a binding activity to immobilized antigen was measured. For the binding activity, the range of absorbance from 0.5 to 1.0 is represented by “+”, from 1.0 to 2.0 by “++”, the range more than 2.0 by “+++”. The competitive test with F1232-37-2 was performed as follows. That is, according to the method by Nakane et al. (J. Histochem. Cytochem., 22, 1084, 1974), peroxidase (TOYOBO)-labeled F1232-37-2 antibody was prepared and an antibody concentration was calculated from the amount of the antibody used.
Next, by using the peroxidase-labeled antibody, the competitive test for a variety of purified antibody was performed. That is, 25 μL of the above labeled antibody and 25 μL of each purified antibody were added to well of hGP-hFc-immobilized plate. After incubation at 37° C. for one hour, the well was washed five times with the saline containing 0.05% Tween20, and the reaction mixture was developed with TMB solution (BioFix). After incubation at room temperature for 10 minutes, the reaction was terminated with 0.5 M sulfuric acid solution and an absorbance at 450 nm was measured with the plate spectrophotometer (Multi-Scan JX, Dainippon Pharmaceutical).

[2] = target: T1, human GPVI extracellular region-human …; assay: ELISA of hybridoma culture supernatant on coated hGPVI-hFc (selection criterion)
Method: Next, culture supernatant was added to each well and incubated at 37° C. for one hour. After incubation, the well was washed three times with the saline containing 0.05% Tween20. Peroxidase-labeled anti-mouse immunoglobulin antibody (DAKO, P260) was 1000-fold diluted with D-PBS containing 10% rabbit serum and added to each well at 50 μL. After incubation at 37° C. for one hour, washing in a similar manner was performed and TMB solution (BioFix) was added to each well. After ten minutes at room temperature, the reaction was terminated with 0.5 M sulfuric acid solution. Subsequently, absorbance at 450 nm was measured with the plate spectrophotometer (Multiscan JX, Dainippon Pharmaceutical). As a result, the cell whose culture supernatant reacted to hGPVI-hFc was selected and a cloning with limiting dilution method (“The Introduction to Monoclonal Antibody Experimental Procedure” written by Tamie Andoh and Takeshi Chiba (Kodansha, p 83)) was performed. Eight days later, screening was done in a similar manner and the antibody which reacts to hGPVI-hFc was selected.
After one week, hybridoma, which produces a desired antibody was screened using the binding property to hGPVI-hFc and hGPVI-mL9-hFc prepared in EXAMPLE 7 as an index. That is, the purified hGPVI-hFc or hGPVI-mL9-hFc, which was prepared in EXAMPLE 1, was diluted with D-PBS (pH7.4) to 1 μg/mL. And 50 μL/well of the solution was added to make hGPVI-hFc or hGPVI-mL9-hFc-coated plate using the same method as that of EXAMPLE 2. Next, a culture supernatant was added to each well, and after incubation at room temperature for one hour, by the same method as that of EXAMPLE 2, using peroxidase-labeled anti-mouse immunoglobulin antibody (DAKO, P260) a reaction was performed to measure an absorbance. As a result, the cell producing an antibody that binds to the purified hGPVI-hFc (absorbance: equal to or more than one), but not hGPVI-mL9-hFc (abdorbance: equal to or less than 0.5) was selected and cloned by the method described in EXAMPLE 2. Eight through ten days later, a screening was done as with the similar way to obtain a hybridoma producing an L9-specific mouse anti-human GPVI antibody. As with EXAMPLE 2B (3), the obtained hybridoma was cultured and a monoclonal antibody was purified. The sub-type of each antibody was determined using IsoStrip Mouse Monoclonal antibody Isotyping Kit (Roche).

[3] = target: T1, human GPVI extracellular region-human …; assay: ELISA, collagen on plate, hGPVI-hFc plus antibody; +++ more than 50%, ++ 30-50%, + 10-30% inhibition
[4] = target: T1, human GPVI extracellular region-human …; assay: ELISA on immobilised hGPVI-hFc; + A450 0.5-1.0, ++ 1.0-2.0, +++ more than 2.0
Method: The hGPVI-hFc prepared by EXAMPLE 1B was diluted with D-PBS to 2 μg/mL and added to immunoplate (Maxisorp NUNC) at 50 μL/well. After incubation at 37° C. for one hour, the well was washed five times with ion-exchanged water, and D-PBS (pH7.4) containing 2% StabilGuard (Surmodics) was added to each well in 100 μL for blocking. Next, culture supernatant was added to each well and incubated at 37° C. for one hour. After incubation, the well was washed three times with the saline containing 0.05% Tween20. Peroxidase-labeled anti-mouse immunoglobulin antibody (DAKO, P260) was 1000-fold diluted with D-PBS containing 10% rabbit serum and added to each well at 50 μL. After incubation at 37° C. for one hour, washing in a similar manner was performed and TMB solution (BioFix) was added to each well. After ten minutes at room temperature, the reaction was terminated with 0.5 M sulfuric acid solution. Subsequently, absorbance at 450 nm was measured with the plate spectrophotometer (Multiscan JX, Dainippon Pharmaceutical). As a result, the cell whose culture supernatant reacted to hGPVI-hFc was selected and a cloning with limiting dilution method (“The Introduction to Monoclonal Antibody Experimental Procedure” written by Tamie Andoh and Takeshi Chiba (Kodansha, p 83)) was performed. Eight days later, screening was done in a similar manner and the antibody which reacts to hGPVI-hFc was selected.
as §1

percent inhibition [1]: 10 to 30% | absorbance [2]: ≥ 1 absorbance | percent inhibition [3]: 30 to 50% | absorbance [4]: 0.5 to 1 od
B1: F1249-22-1 (antibody, V domains shown)
VH: QVQLQQPGAELVKPGASVKLSCKASGYTFTSYWMQWVKERPGQGLEWIGEIDPSDSYTNYNQKFKGKATLTVDTSSSTACMQLSSLTSEDSAVYYCARGAITTATLDYWGQGTTLTVSS
VL: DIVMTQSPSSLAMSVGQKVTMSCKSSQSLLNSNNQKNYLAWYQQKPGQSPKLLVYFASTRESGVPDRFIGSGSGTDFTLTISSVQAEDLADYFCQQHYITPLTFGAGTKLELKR

percent inhibition [1]: 30 to 50% | absorbance [2]: ≥ 1 absorbance | absorbance [4]: > 2 od
B2: F1249-20-1 (antibody, V domains shown)
VH: QVQLQQSGAELVRPGVSVKISCKGSGYTFTDYAMHWVKQSHAKSLEWIGVISTYYGDTSYNQKFKGKATMTVDKSSSTAYMELARLTSEDSAIYYCARAEDYDPWFAYWGQGTLVTVSA
VL: DIVLTQSPASLAVSLGQRATISCRASESVDSYGNSFMYWYQQKPGQPPKLLIYRASNLESGIPARFSGSGSRTDFTLTINPVEADDVATYYCQQSDEDPLTFGAGTKLELKR

absorbance [4]: > 2 od
B3: F1257-3-1 (antibody, V domains shown)
VH: QVTLKESGPGMLQPSKTLSLTCSFSGFSLSTSGMVVSWIRQPSGKSLEWLAAIDWDGDKYYNPSLKSRLTVSKDTSNTQVFLKISSVDIADTATYYCARTPYYGYKEAYYFDYWGQGVKVTVSS
VL: DIQMTQSPASLSASLEEIVTITCKASRAIDDYLSWYQQKPGKSPQLLIYDATSLADGVPSRFSGSRSGTQYSLKISRPQVDDSGIYYCLQSYSTPWTFGGGTKLDLKR

percent inhibition [1]: 30 to 50% | absorbance [2]: ≥ 1 absorbance | percent inhibition [3]: 10 to 30% | absorbance [4]: 0.5 to 1 od
B4: F1249-3-2 (antibody, V domains shown)
VH: EVQLVESGGGLVKPGGSLKLSCAASGFTFSSYGMSWVRQTPDKRLEWVATISSGGSYTYYSDSVKGRFTISRDNAKNNLYLQLSSLKSQDTAIYYCARDSGYFDYWGQGTTLTVSS
VL: NIVLTQSPASLAVSLGQRATISCRASESVDSYGNSFMHWYQQKPGQPPKLLIYLASNLESGVPARFSGSGSRTDFTLTIDPVEADDAATYYCQQNNEDPRTFGGGTKLEIKR

percent inhibition [1]: > 50% | absorbance [2]: ≥ 1 absorbance | percent inhibition [3]: 10 to 30% | absorbance [4]: > 2 od
B5: F1249-24-1 (antibody, V domains shown)
VH: B2 VH
VL: B2 VL with Y38H

percent inhibition [1]: 10 to 30% | absorbance [2]: ≥ 1 absorbance | absorbance [4]: 1 to 2 od
B6: F1246-1-1 (antibody, V domains shown)
VH: EVQLVESGGDLVKPGGSLKLSCAASGFTFSSYGMSWVRQTPDKRLEWVATISNGGTYTYYPDSVKGRFTISRDNAKNTLYLQMSSLKSDDTAMYYCGRLRDYYAMDYWGQGTSVTVSS
VL: B2 VL with Y38H, D96N, L100W, A104G, L110I

percent inhibition [1]: > 50% | absorbance [2]: ≥ 1 absorbance | absorbance [4]: > 2 od
B7: F1249-30-1 (antibody, V domains shown)
VH: B2 VH with T69A, E89D
VL: B2 VL with Y38H

percent inhibition [1]: 30 to 50% | absorbance [2]: ≥ 1 absorbance | percent inhibition [3]: 10 to 30% | absorbance [4]: > 2 od
B8: F1245-4-1 (antibody, V domains shown)
VH: QVQLQQPGAELVKPGASVKLSCKASGCTFTSYWMHWVKQRPGQGLEWIGMIHPNSDNTNYNEKFKSKATLTVDKSSSTAYMHLSSLTSEDSAVYYCATHYYDYVDYWGQGTTLTVSS
VL: NIVMTQTPKFLLVSAGDRVTITCKASQSVSNDVAWYQQKPGQSPKLLIYYASNRYTGVPDRFTGSGYGTDFTFTISTVQAEDLAVYFCQQDYSSPWTFGGGTKLEIKR

percent inhibition [1]: 30 to 50% | absorbance [2]: ≥ 1 absorbance | percent inhibition [3]: > 50% | absorbance [4]: > 2 od
B9: F1249-18-2 (antibody, V domains shown)
VH: QVQLQQPGAELVKPGASVKLSCKASGYTFTSYWMHWLKQRPGQGLEWIGMIHPNSDITNYNEKFKNKATLTVDKSSSTAYMQLSSLTSEDSAVYYCARSGDYYAMDYWGQGTSVTVSS
VL: B8 VL with N1S, W96P

percent inhibition [1]: 30 to 50% | absorbance [2]: ≥ 1 absorbance | percent inhibition [3]: 10 to 30% | absorbance [4]: 1 to 2 od
B10: F1245-5-1 (antibody, V domains shown)
VH: QVQLQQPGAELVKPGASVKLSCKASGYTFISYWMHWVKQRPGQGLEWIGMIHPNSGSTHYNEKFKSKATLTVDKSSSTAYMQLSSLTSEDSAVYYCARGGVTPVAYWGQGTLVTVSA
VL: B8 VL with N1S

percent inhibition [1]: 30 to 50% | absorbance [2]: ≥ 1 absorbance | percent inhibition [3]: 10 to 30% | absorbance [4]: 1 to 2 od
B11: F1249-5-1 (antibody, V domains shown)
VH: B9 VH with D73A, S99L
VL: B8 VL with N1S, A34T, W96P

percent inhibition [1]: 10 to 30% | absorbance [2]: ≥ 1 absorbance | absorbance [4]: 1 to 2 od
B12: F1245-7-1 (antibody, V domains shown)
VH: QVQLQQPGAELVKPGASVKLSCKASGYTFTSYWMHWVKQRPGQGLEWIGMIHPNSGSTNYNEKFKSKATLTVDKSSSTAYMQLSSLTSEDSAVYYCASPVTAVVEYYFDYWGQGTTLTVSS
VL: SIVMTQTPKFLLVSAGDRVTITCKASQSVSNDVAWYQQKPGQSPKLLIYYASNRYTGVPDRFTGSGYGTDFTFTISTVQAEDLAVYFCQQDYSSLTFGSGTKLEIKR

percent inhibition [1]: 10 to 30% | absorbance [2]: ≥ 1 absorbance | percent inhibition [3]: 10 to 30% | absorbance [4]: 0.5 to 1 od
B13: F1251-1-1 (antibody, V domains shown)
VH: QVNLLQSGAALVKPGASVKLSCKASGYTFTDYYIHWVKQSHGKSLEWIGYINPNSGYTNYNEKFKSKATLTVDKSTNTAYMELSRLTSEDSATYYCTRCNSGYGDWFAYWGQGTLLTVSS
VL: DIQMTQSPPVLSASVGDRVTLSCKASQNINKNLDWYQQKHGEAPKLLIYYTNNLQTDIPSRFSGSGSGTDYTLTISSLQPEDVATFYCYQYNSGPGTFGAGTKLELKR
